{"source": "paper PMC5569669", "about": "“Rhenium and Technetium-oxo Complexes with Thioamide Derivatives of Pyridylhydrazine Bifunctional Chelators Conjugated to the Tumour Targeting Peptides Octreotate and Cyclic-RGDfK” (Inorganic Chemistry, 2017)", "assay_type": "in vitro ADME, human", "protocol": "Human blood samples were centrifuged with a Heraeus Labofuge 6000 centrifuge at 3000g for 10 min (Heraeus, Hanau, Germany). Radioactivity readings for serum stability studies were taken with a Capintec CRC-35R dose calibrator (Capintec, New Jersey, USA) and were measured in MBq. Centrifugation of radioactive compounds was undertaken using an Eppendorf 5415 D centrifuge (Eppendorf, Hamburg, Germany). Partition coefficient data were collected with a PerkinElmer, Wizard 1470 (PerkinElmer, Massachusetts, USA) automatic γ counter, which measured the radioactive decay of each sample in counts per minute (cpm).\nFor serum stability studies, blood from a healthy person (20 mL) was centrifuged (10 min, 3000 rpm) to separate blood plasma and red blood cells. The plasma was transferred to a separate vial and the red blood cells were discarded. An aliquot of plasma (0.6 mL) was added to labeled compound, [^99mTc(HL^3(Tyr^3-Oct))2]^+ (0.15 mL), the radioactivity was monitored and the mixture was then incubated at 37 °C. […] The radioactivity of the supernatant and pellet was recorded. The supernatant (20 μL) was analyzed by analytical RP-HPLC (Column 7, System C) for UV and radioactivity analysis and the pellet were washed with acetonitrile (3 × 0.1 mL), and radioactivity levels were again recorded (radioactivity levels of the pellet were negligible).", "data": [{"smiles": "C[C@@H](O)[C@H](NC(=O)[C@@H]1CSSC[C@H](NC(=O)[C@@H](Cc2ccccc2)NC(=O)c2ccc(NNC(=S)Nc3ccccc3)nc2)C(=O)N[C@@H](Cc2ccc(O)cc2)C(=O)N[C@H](Cc2c[nH]c3ccccc23)C(=O)N[C@@H](CCCCN)C(=O)N[C@@H]([C@@H](C)O)C(=O)N1)C(=O)O", "note": "(99mTc complex, metal not drawn) [[^99mTcO(HL^3(Tyr^3-Oct))2]^+]", "values": [{"measurement": "degradation products in human plasma", "value": "< 5", "unit": "%"}, {"measurement": "radioactivity levels of the pellet (precipitated serum proteins)", "value": "negligible"}]}]}
